Reference: the domain aggregation screens of Martell et al. (2025)

experiment: soluble fraction after stress (log2 fold change); higher = more stays soluble; pooled small domains, quantitative proteomics; settings: stress: 50 degC
In short: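 Pooled custom libraries of small protein domains were each held under stress at 50°C. The read-out, high-throughput quantitative proteomics, tracked how much of each protein stayed soluble. This is reported as a base-two log fold change used to indicate aggregation propensity. Higher values mean more protein remains in solution.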

Sequence	soluble fraction (log2)
HMNADRIVGQTAKVIHPITPDEKGRVMVDNLDWAAAAQNRGESFEVGEEVSIVRIEGVTVYVQK	0.209
HMSNETKSAILNFAEKHHDFNIDDLFESLSKSMDINRSSLLWHLFKLVNSNVLIRTGRGMYAKV	-1.89
HMNIWNEWAFKKWIESDEYTGPDMTDFGHRTLVDEEFSKQYKEQMSLFKERVLTDDEFSAKYGDL	-0.66
HMNREYELTAEESGQRLDKYLAGEMTDLSRSRIKELVQAGEILVNGKKSKVSYKVQKDDLIQVIVLPLE	-0.285
HMKQNRNLPVQIINNGKIIESVMTEFNLDIDWVYSEAKRLGYKNIKDIFYAGINRDGQFFIVPLF	-0.448
HMIERLVEFVHTLRHSGVRVSMAEAMDAAEALRHTPITERQIFKTALQSVLVKEHQDIPAFDAAFERFFL	-1.54
HMHTDQVLVMTRAVGQGEIVRNTDVGLTSVAVDRAVTTIPASQLDEIVGRHALVDLSAGQLLGSHSVGA	0.0253
HMPEGTYLEKLAIENNNLQLIGLSREASQLVQLLQDAPQWRKVNLTGVLQADGAASGRDRFTMTAELQ	0.0683
HMGQELRFVIQDHEAGIRLDHYLTQQVEGYSRSHLRKLMDQGLITVDGSYRKAGYRLNVGDVIHVVIPPTR	-0.443
HMKLPIEKESYRIIWDLEEESFRIRLKISENSPQEEKNILINQAIEDIENITGEPIDKSPYYVLYE	0.0672
HMIKITLPDGSVKEYKKGITPAEVAQSISEGLARNVISASYNGKTIETVTPLTTDGSLVLYTWDSPEGK	0.193
HMKTGNIITVSLVWKGKYYMIRMFFPSASRPTRSDVQNEIEKVYPGSKLSTFSVSDYEPGQPLLQV	-1.16
HMSDAVQLGLRLRAARERRGLSQQAVADALGLPRTAVTNMESGNRAVSTLELTKLAALYGQSTAFFLSP	-0.1
HMIIVMRKGATEAQVNDIVERVRAAGFGVHLSQGEERTIIGAIGGDRAVLADLNLEAAPGVERVTPIS	0.0417
HMDPFAYEVKVTDLAAGSSEIRTVYTEQGSFNIPSGMSGNLKIQVRSASMYDEVEPSDWYTIGEEDIN	-0.0779
HMSDFDPTLILDLIKGSGEALTKREIARALGIKGGDKRIELKSHLKSMEAEGVIVKQAGGAYSVP	-0.122
HMEHVVFEVTESGELENNTAVKHVLNSFNNKSLNLAIDDFGTGYSNLRYIRDMMFGIIKIDRLFIKDINES	-0.018
HMTIGKRIKRRRIELKMSIDSLARTIGKDRSTVYRYESGAIDKVSSDVLAKLATALNTTPAYLIGL	-3.27
HMANTLDPMDLKQIISLHLDGFSNRKIGATLGISRNTVNTYMRLFSVSDYALKELLTLDNATLDKLFPS	-2.01

Sequence	soluble fraction (log2)
HMTGAEGKLARYLLTVPSGEPLRLSATDLAKRLGISRASLYRAFQALEDARLIRREGKSMYVLDPAGLEGV	-0.289
HMGDAVSRAYFALADDLLKGELTETVSEVLIRTRYELTSAQLQAVLHRIAQEGWAHKKPGYGWEFSAMLT	-1.83
HMAPSPEGAAILRESVESVARDQVDRVALTMTARGYTTAEIAAALMVDRSTISRRLYAMRDRYHAQQDNAQ	-0.37
HMYPTPAAANRHFLDKWGHQEAYLGKVLNSRSRASEILNGKRPLSLSDLRTLRDNLGIPVDLLL	-0.489
HMVVMEIGANGSEVVKLQKRLNQLGYYTEHASGVYDVKTASAVNEFQRQNELNATGKADYTTLDMIYNQ	0.02
HMTVPAGIVLSSIRQDGDVLHIRGTAQSTERLNFFRNSFSASWGSPAQNGKRKADPVTGLVDFTISLK	-0.677
HMKYNYEAQQSDELSLVKGSRIHVLEKSSDGWWKGEIDNVVGWFPS	-0.205
HMASIATLTVKALGGASDVVIRDKDGRIIWADRLPAGQSHRVFGHAPFNVAASHASRVQLSLLGKDVGRV	-0.719
HMNMFDMRKTGARISQLRRAAGLTQAELAEKLGISYQAVSSWERGSNMPDIGKLLDLARILNTTVDALLSA	-0.375
HMDRDQNVEEGQRSLKSEMGRFGLLIANMDDLAERVNYGNAEDMYAAIGAGDLRLMQVVHAAEEMLG	0.127
HMKGSPFSQLPKEKKKRILQAAIEVFAQNDYKHASTDEIASRAGISKGLLFYYFHDKKTLYFYLGEYLKR	-0.0373
HMSPPALAVQRDGSNVQISWPGAEEGWRLESSAEPSGAAWDLIAQNPTPVGGRWTVSLTEPTGRRFYRLVK	0.0321
HMSYTWHDMYLLAQEYQKEHGNLIIPRNYKGKNGLNLGYWLYKEKLKYRQGKLAPEKIIALEHIGIVWT	-1.21
HMLTNNYKNDKALRFAKNHGIHESNILKLVSLYENAPEKGFNAQSIAELLGITPRSASRILVKLLQHNLIR	-1.42
HMEEPEFEPYVVRLTAIALNVRTGPGTQYPVAMVIRGGGAFTIVAEENGFGLLKSGAGWIMLQHTERV	-0.434
HMRITEQRRTLAKLFADTPGYLSPKDVYDYMGRFYPGLSFDTVYRNLRLLDELGVLEQVVFEDGVKFK	-0.718
HMSTIKEKIIQYLDFKGISKYDFYQKTGVSNGVLSQKSGMSEDNIMRFLSYYDDINTDWLFYGKGEMIKT	-1.13
HMTSPKSRIVSALLASPSRPEELAMRLGEDILTLMRTLTDFEASGIIQRLPDGRYTPTREYHLGLVDK	0.0852
